From the supplement of paper PMC5998384

Tests used:
HeLa Kyoto [1] = assay: solubility in G1/S (NP-40 vs SDS abundance) (log2 ratio); higher = more soluble; details: cell cycle stage: G1/S
HeLa Kyoto [2] = assay: melting temperature (median over replicates), in situ; higher = more thermally stable
HeLa Kyoto [3] = assay: thermal stability score vs G1/S (z-score of summed log2 fold changes over temperatures); higher = more thermally stable than in G1/S
HeLa Kyoto [4] = assay: solubility change mitosis vs G1/S (difference of NP-40 vs SDS log2 ratios) (log2 ratio difference); higher = more soluble in mitosis
[5] = cell cycle stage: early G1 (4.5 h after nocodazole release)
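For melting temperature (median over replicates), in situ in this document: HeLa Kyoto cells synchronized by double thymidine or nocodazole block, proteins quantified by TMT10plex mass spectrometry, three independent biological replicates.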
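For solubility change mitosis vs G1/S (difference of NP-40 vs SDS log2 ratios) in this document: synchronized HeLa Kyoto cells (double thymidine block for G1/S, nocodazole release for mitosis), protein amounts in NP-40 versus SDS lysates quantified by mass spectrometry, three biological replicates.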
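For solubility in G1/S (NP-40 vs SDS abundance) in this document: HeLa Kyoto cells arrested at G1/S by double thymidine block, proteins quantified by TMT10plex mass spectrometry in mild NP-40 versus SDS extracts, three biological replicates.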
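For thermal stability score vs G1/S (z-score of summed log2 fold changes over temperatures) in this document: synchronized HeLa Kyoto cells, proteins quantified by TMT10plex mass spectrometry, three biological replicates, mitosis taken 0.5 h after nocodazole release, G1/S directly after double thymidine block.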

| Sequence | solubility in G1/S (log2) (HeLa Kyoto [1]) | melting temperature (HeLa Kyoto [2]; cell cycle stage: G1/S) [°C] | melting temperature (HeLa Kyoto [2]; cell cycle stage: mitosis) [°C] | thermal stability score (HeLa Kyoto [3]; [5]) | thermal stability score (HeLa Kyoto [3]; cell cycle stage: mitosis) | solubility change mitosis (log2) (HeLa Kyoto [4]) |
| --- | --- | --- | --- | --- | --- | --- |
| MASGAYNPYIEIIEQPRQRGMRFRYKCEGRSAGSIPGEHSTDNNRTYPSIQIMNYYGKGKVRITLVTKNDPYKPHPHDLVGKDCRDGYYEAEFGQERRPLFFQNLGIRCVKKKEVKEAIITRIKAGINPFNVPEKQLNDIEDCDLNVVRLCFQVFLPDEHGNLTTALPPVVSNPIYDNRAPNTAELRICRVNKNCGSVRGGDEIFLLCDKVQKDDIEVRFVLNDWEAKGIFSQADVHRQVAIVFKTPPYCKAITEPVTVKMQLRRPSDQEVSESMDFRYLPDEKDTYGNKAKKQKTTLLFQKLCQDHVETGFRHVDQDGLELLTSGDPPTLASQSAGITVNFPERPRPGLLGSIGEGRYFKKEPNLFSHDAVVREMPTGVSSQAESYYPSPGPISSGLSHHASMAPLPSSSWSSVAHPTPRSGNTNPLSSFSTRTLPSNSQGIPPFLRIPVGNDLNASNACIYNNADDIVGMEASSMPSADLYGISDPNMLSNCSVNMMTTSSDSMGETDNPRLLSMNLENPSCNSVLDPRDLRQLHQMSSSSMSAGANSNTTVFVSQSDAFEGSDFSCADNSMINESGPSNSTNPNSHGFVQDSQYSGIGSMQNEQLSDSFPYEFFQV [REL] | -0.0913 | 49.5 | 50.5 | -0.962 | -0.219 | -0.0913 |
| MASGNARIGKPAPDFKATAVVDGAFKEVKLSDYKGKYVVLFFYPLDFTFVCPTEIIAFSNRAEDFRKLGCEVLGVSVDSQFTHLAWINTPRKEGGLGPLNIPLLADVTRRLSEDYGVLKTDEGIAYRGLFIIDGKGVLRQITVNDLPVGRSVDEALRLVQAFQYTDEHGEVCPAGWKPGSDTIKPNVDDSKEYFSKHN [PRDX2] | 0.354 | 55 | 55.1 | -3.24 | -3.32 | 0.0464 |
| MASKRALVILAKGAEEMETVIPVDVMRRAGIKVTVAGLAGKDPVQCSRDVVICPDASLEDAKKEGPYDVVVLPGGNLGAQNLSESAAVKEILKEQENRKGLIAAICAGPTALLAHEIGFGSKVTTHPLAKDKMMNGGHYTYSENRVEKDGLILTSRGPGTSFEFALAIVEALNGKEVAAQVKAPLVLKD [PARK7] | 0.529 | 56.8 | 57.4 | 1.01 | -0.859 | 0.0696 |
| MASLDRVKVLVLGDSGVGKSSLVHLLCQNQVLGNPSWTVGCSVDVRVHDYKEGTPEEKTYYIELWDVGGSVGSASSVKSTRAVFYNSVNGIIFVHDLTNKKSSQNLRRWSLEALNRDLVPTGVLVTNGDYDQEQFADNQIPLLVIGTKLDQIHETKRHEVLTRTAFLAEDFNPEEINLDCTNPRYLAAGSSNAVKLSRFFDKVIEKRYFLREGNQIPGFPDRKRFGAGTLKSLHYD [RABL3] | 0.0735 | 52 | 51.9 | -0.0942 | -1.09 | -0.0274 |
| MASLSLAPVNIFKAGADEERAETARLTSFIGAIAIGDLVKSTLGPKGMDKILLSSGRDASLMVTNDGATILKNIGVDNPAAKVLVDMSRVQDDEVGDGTTSVTVLAAELLREAESLIAKKIHPQTIIAGWREATKAAREALLSSAVDHGSDEVKFRQDLMNIAGTTLSSKLLTHHKDHFTKLAVEAVLRLKGSGNLEAIHIIKKLGGSLADSYLDEGFLLDKKIGVNQPKRIENAKILIANTGMDTDKIKIFGSRVRVDSTAKVAEIEHAEKEKMKEKVERILKHGINCFINRQLIYNYPEQLFGAAGVMAIEHADFAGVERLALVTGGEIASTFDHPELVKLGSCKLIEEVMIGEDKLIHFSGVALGEACTIVLRGATQQILDEAERSLHDALCVLAQTVKDSRTVYGGGCSEMLMAHAVTQLANRTPGKEAVAMESYAKALRMLPTIIADNAGYDSADLVAQLRAAHSEGNTTAGLDMREGTIGDMAILGITESFQVKRQVLLSAAEAAEVILRVDNIIKAAPRKRVPDHHPC [CCT2] | 0.193 | 54.1 | 53.1 | -0.324 | -1.07 | -0.0739 |
| MASPGCLWLLAVALLPWTCASRALQHLDPPAPLPLVIWHGMGDSCCNPLSMGAIKKMVEKKIPGIYVLSLEIGKTLMEDVENSFFLNVNSQVTTVCQALAKDPKLQQGYNAMGFSQGGQFLRAVAQRCPSPPMINLISVGGQHQGVFGLPRCPGESSHICDFIRKTLNAGAYSKVVQERLVQAEYWHDPIKEDVYRNHSIFLADINQERGINESYKKNLMALKKFVMVKFLNDSIVDPVDSEWFGFYRSGQAKETIPLQETSLYTQDRLGLKEMDNAGQLVFLATEGDHLQLSEEWFYAHIIPFLG [PPT1] | 0.426 | 55.1 | 55.2 | 0.0933 | -1.67 | -0.105 |
